Experimental data: US20240409599A1 (Genentech, published 2024)
Residue numbers refer to the chain shown, from its start. Names and notes keep the numbering of the source.

T1: Human IL-18BP (isoform A) (human, UniProt O95998 31-194, biotinylated (site not stated))
T1 construct: also called decoy receptor
T1 sequence: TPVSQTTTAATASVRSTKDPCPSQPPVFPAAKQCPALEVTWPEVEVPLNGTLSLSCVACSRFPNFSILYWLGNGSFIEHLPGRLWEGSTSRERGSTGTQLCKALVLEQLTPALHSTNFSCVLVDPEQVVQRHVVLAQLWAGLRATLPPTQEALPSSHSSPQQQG

T2: Mouse IL-18BP (isoform D) (mouse, UniProt Q9Z0M9 29-193, biotinylated (site not stated))
T2 sequence: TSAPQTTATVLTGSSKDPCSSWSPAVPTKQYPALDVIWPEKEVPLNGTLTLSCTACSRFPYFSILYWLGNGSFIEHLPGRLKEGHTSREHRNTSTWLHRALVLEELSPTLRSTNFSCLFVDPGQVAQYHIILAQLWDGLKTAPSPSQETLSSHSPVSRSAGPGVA

T3: Human IL-18Rα extracellular domain (human, UniProt Q13478 22-329, biotinylated (site not stated))
T3 construct: also called IL-18 receptor
T3 sequence: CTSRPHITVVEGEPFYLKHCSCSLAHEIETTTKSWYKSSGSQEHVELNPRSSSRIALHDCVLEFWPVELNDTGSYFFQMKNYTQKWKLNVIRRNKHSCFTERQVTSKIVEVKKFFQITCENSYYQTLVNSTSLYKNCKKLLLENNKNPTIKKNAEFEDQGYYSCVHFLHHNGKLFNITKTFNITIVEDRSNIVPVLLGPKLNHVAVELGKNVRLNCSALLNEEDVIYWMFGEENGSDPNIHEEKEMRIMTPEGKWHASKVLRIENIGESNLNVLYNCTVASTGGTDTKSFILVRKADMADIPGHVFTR

T4: Mouse IL-18Rα extracellular domain (mouse, UniProt Q61098 20-326, biotinylated (site not stated))
T4 sequence: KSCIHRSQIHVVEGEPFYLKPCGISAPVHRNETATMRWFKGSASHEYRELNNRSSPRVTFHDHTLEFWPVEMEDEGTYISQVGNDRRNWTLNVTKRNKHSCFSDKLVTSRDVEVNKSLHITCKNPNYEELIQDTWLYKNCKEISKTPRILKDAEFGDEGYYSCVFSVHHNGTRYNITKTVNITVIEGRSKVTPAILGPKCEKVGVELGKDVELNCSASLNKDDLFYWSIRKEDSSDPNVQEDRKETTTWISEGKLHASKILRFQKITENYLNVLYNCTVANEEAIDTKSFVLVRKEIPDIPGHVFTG

B1: Human IL-18 A162C/I185C (ligand)
chain: YFGKLESKLSVIRNLNDQVLFIDQGNRPLFEDMTDSDSRDNAPRTIFIISMYKDSQPRGMAVTISVKSEKISTLSSENKIISFKEMNPPDNIKDTKSDIIFFQRSVPGHDNKMQFESSSYEGYFLCSEKERDLFKLILKKEDELGDRSCMFTVQNED
notes: Made in mammalian cells
B2: Human IL-18 F57C/T81C (ligand)
chain: B1 chain with F21C, T45C, C126A, C149I
notes: Made in mammalian cells
B3: Human IL-18 I107C/N123C (ligand)
chain: B1 chain with I71C, N87C, C126A, C149I
notes: Made in mammalian cells
B4: Human IL-18 L45C/E192C (ligand)
chain: B1 chain with L9C, C126A, C149I, E156C
notes: Made in mammalian cells
B5: Human IL-18 L174C (ligand)
chain: B1 chain with S76C, C126A, L138C, C149I
notes: Made in mammalian cells
B6: Human IL-18 N50C (ligand)
chain: B1 chain with N14C, C126A, S127C, C149I
notes: Made in mammalian cells
B7: Human IL-18 N50C/L174C (ligand)
chain: B1 chain with N14C, S76C, C126A, S127C, L138C, C149I
notes: Made in mammalian cells
B8: Human IL-18 S43C/S86C (ligand)
chain: B1 chain with S7C, S50C, C126A, C149I
notes: Made in mammalian cells
B9: Human IL-18 S46C/I85C (ligand)
chain: B1 chain with S10C, I49C, C126A, C149I
notes: Made in mammalian cells
B10: Human IL-18 S46C/V189C (ligand)
chain: B1 chain with S10C, C126A, C149I, V153C
notes: Made in mammalian cells
B11: Human IL-18 S101C/T109C (ligand)
chain: B1 chain with S65C, T73C, C126A, C149I
notes: Made in mammalian cells
B12: Human IL-18 T99C/P124C (ligand)
chain: B1 chain with T63C, P88C, C126A, C149I
notes: Made in mammalian cells
B13: Human IL-18 Y37C/S91C (ligand)
chain: B1 chain with Y1C, S55C, C126A, C149I
notes: Made in mammalian cells
B14: Human IL-18 hCS (ligand)
chain: B1 chain with C126A, C149I
B15: Mouse wild-type mature IL-18 (ligand)
chain: NFGRLHCTTAVIRNINDQVLFVDKRQPVFEDMTDIDQSASEPQTRLIIYMYKDSEVRGLAVTLSVKDSKMSTLSCKNKIISFEEMDPPENIDDIQSDLIFFQKRVPGHNKMEFESSLYEGHFLACQKEDDAFKLILKKKDENGDKSVMFTLTNLHQS
notes: also called Mouse WT; mouse mature IL-18
B16: Mouse IL-18 A159C/V182C (ligand)
chain: B15 chain with C7S, C75S, A124C, C125S, V147C
B17: Mouse IL-18 T44C/L189C (ligand)
chain: B15 chain with C7S, T9C, C75S, C125S, L154C
notes: Made in mammalian cells

Molecular target: T1, Human IL-18BP (isoform A)
Assay: SPR, Biacore 8K, 37 C, biotinylated target on SA chip, single-cycle kinetics
Description: (§1) SPR experiments were performed using a Biacore 8K (Cytiva) at a temperature of 37° C. Biotinylated human or mouse IL-18Rα and IL-18BP were immobilized onto Biacore streptavidin sensor chip (Series S Sensor Chip SA, Cytiva) to yield an Rmax ≤50 RU. Measurements were made with five, three-fold dilutions into HBS-P+ buffer (10 mM HEPES pH 7.4, 150 mM NaCl, 0.005% surfactant P20). Interactions were evaluated using the single-cycle kinetics method and analyzed with the Biacore 8K evaluation software and fit to a 1:1 binding model.
(§2) A subset of variants were selected for analyses of binding kinetics to the L-18 receptor, IL-IM, and the decoy receptor, L-18BP, by surface plasmon resonance (SPR) (Table 8). With two exceptions, all kinetics constants are within an order of magnitude of wild-type IL-18.

**Q.** Which results are given for B1?
**A.** Kd: 0.0065 nM; koff: 1.89e-05 s⁻¹; kon: 2.91e+06 M⁻¹ s⁻¹

**Q.** Which Kd does the source give for B2 here?
**A.** The Kd was 0.007 nM.

**Q.** What about the koff of the same binder?
**A.** Its koff is 2.2e-05 s⁻¹.

**Q.** What about the kon of the same binder?
**A.** The kon was 3.4e+06 M⁻¹ s⁻¹.

**Q.** What does the source list for B3?
**A.** Kd: 0.007 nM; koff: 2.1e-05 s⁻¹; kon: 2.9e+06 M⁻¹ s⁻¹

**Q.** B4 was tested. Which Kd did it give?
**A.** Its Kd is 0.015 nM.

**Q.** And the koff?
**A.** The koff was 3.1e-05 s⁻¹.

**Q.** And the kon?
**A.** The kon was 2.1e+06 M⁻¹ s⁻¹.

**Q.** Which results are given for B5?
**A.** Kd: 0.007 nM; koff: 2.1e-05 s⁻¹; kon: 2.93e+06 M⁻¹ s⁻¹

**Q.** With B6 as the binder, how does the Kd read?
**A.** Its Kd is 0.0062 nM.

**Q.** What about the koff of the same binder?
**A.** Its koff is 2.6e-05 s⁻¹.

**Q.** And the kon?
**A.** Its kon is 4.22e+06 M⁻¹ s⁻¹.

**Q.** Which results are given for B7?
**A.** Kd: 0.014 nM; koff: 4.8e-05 s⁻¹; kon: 3.6e+06 M⁻¹ s⁻¹

**Q.** Which results are given for B8?
**A.** Kd: 0.009 nM; koff: 3.2e-05 s⁻¹; kon: 3.4e+06 M⁻¹ s⁻¹

**Q.** Which Kd does the source give for B9 here?
**A.** Its Kd is 0.035 nM.

**Q.** What about the koff of the same binder?
**A.** The koff was 0.00012 s⁻¹.

**Q.** What about the kon of the same binder?
**A.** Its kon is 3.3e+06 M⁻¹ s⁻¹.

**Q.** Which Kd does the source give for B10 here?
**A.** The Kd was 0.018 nM.

**Q.** And the koff?
**A.** The koff was 4.3e-05 s⁻¹.

**Q.** And the kon?
**A.** Its kon is 2.3e+06 M⁻¹ s⁻¹.

**Q.** Which results are given for B11?
**A.** Kd: 0.011 nM; koff: 2.4e-05 s⁻¹; kon: 2.3e+06 M⁻¹ s⁻¹

**Q.** Which results are given for B12?
**A.** Kd: 0.008 nM; koff: 2.5e-05 s⁻¹; kon: 3e+06 M⁻¹ s⁻¹

**Q.** Which Kd does the source give for B13 here?
**A.** The Kd was 0.07 nM.

**Q.** What about the koff of the same binder?
**A.** Its koff is 0.00018 s⁻¹.

**Q.** And the kon?
**A.** The kon was 2.6e+06 M⁻¹ s⁻¹.

**Q.** What does the source list for B14?
**A.** Kd: 0.035 nM; koff: 4.9e-05 s⁻¹; kon: 1.4e+06 M⁻¹ s⁻¹

Molecular target: T2, Mouse IL-18BP (isoform D)
Assay: as above
Description: as §1, §2

**Q.** B15 was tested. Which kon did it give?
**A.** The kon was 650000 M⁻¹ s⁻¹.

**Q.** What does the source list for B16?
**A.** Kd: 0.014 nM; koff: 3.2e-05 s⁻¹; kon: 2.23e+06 M⁻¹ s⁻¹

**Q.** Which results are given for B17?
**A.** Kd: 0.005 nM; koff: 1.1e-05 s⁻¹; kon: 2e+06 M⁻¹ s⁻¹

Molecular target: T3, Human IL-18Rα extracellular domain
Assay: as above
Description: as §1, §2

**Q.** Which results are given for B1?
**A.** Kd: 68.1 nM; koff: 0.212 s⁻¹; kon: 3.11e+06 M⁻¹ s⁻¹

**Q.** B3 was tested. Which Kd did it give?
**A.** Its Kd is 14.7 nM.

**Q.** And the koff?
**A.** The koff was 0.031 s⁻¹.

**Q.** What about the kon of the same binder?
**A.** Its kon is 2.1e+06 M⁻¹ s⁻¹.

**Q.** What does the source list for B4?
**A.** Kd: 58.7 nM; koff: 0.028 s⁻¹; kon: 470000 M⁻¹ s⁻¹

**Q.** What does the source list for B5?
**A.** Kd: 32.8 nM; koff: 0.011 s⁻¹; kon: 350000 M⁻¹ s⁻¹

**Q.** How did the Kd turn out when B8 was run?
**A.** Its Kd is 54.5 nM.

**Q.** What about the koff of the same binder?
**A.** Its koff is 0.0241 s⁻¹.

**Q.** And the kon?
**A.** Its kon is 440000 M⁻¹ s⁻¹.

**Q.** For B10, which Kd is on record?
**A.** The Kd was 147 nM.

**Q.** What about the koff of the same binder?
**A.** Its koff is 0.054 s⁻¹.

**Q.** And the kon?
**A.** The kon was 360000 M⁻¹ s⁻¹.

**Q.** B11 was tested. Which Kd did it give?
**A.** Its Kd is 147 nM.

**Q.** What about the koff of the same binder?
**A.** The koff was 0.042 s⁻¹.

**Q.** What about the kon of the same binder?
**A.** The kon was 280000 M⁻¹ s⁻¹.

**Q.** Which Kd does the source give for B12 here?
**A.** Its Kd is 64.4 nM.

**Q.** What about the koff of the same binder?
**A.** The koff was 0.032 s⁻¹.

**Q.** And the kon?
**A.** The kon was 500000 M⁻¹ s⁻¹.

**Q.** B14 was tested. Which Kd did it give?
**A.** Its Kd is 1.7 nM.

**Q.** And the koff?
**A.** Its koff is 5.6e-05 s⁻¹.

**Q.** What about the kon of the same binder?
**A.** The kon was 32000 M⁻¹ s⁻¹.

Molecular target: T4, Mouse IL-18Rα extracellular domain
Assay: as above
Description: as §1, §2

**Q.** How did the Kd turn out when B15 was run?
**A.** The Kd was 1.27 nM.

**Q.** And the koff?
**A.** Its koff is 0.0097 s⁻¹.

**Q.** And the kon?
**A.** Its kon is 7.6e+06 M⁻¹ s⁻¹.

**Q.** What does the source list for B16?
**A.** Kd: 1.11 nM; koff: 0.0077 s⁻¹; kon: 7e+06 M⁻¹ s⁻¹

**Q.** Which Kd does the source give for B17 here?
**A.** Its Kd is 5.2 nM.

**Q.** What about the koff of the same binder?
**A.** The koff was 0.04 s⁻¹.

**Q.** And the kon?
**A.** Its kon is 7.6e+06 M⁻¹ s⁻¹.

Molecular target: T3, Human IL-18Rα extracellular domain
Assay: SPR, Biacore 8K, 37 C, biotinylated target on SA chip
Description: as §1, §2

**Q.** Does B6 bind?
**A.** Result: no binding (tested: up to 81 nM)

**Q.** Does B7 bind?
**A.** Result: no binding (tested: up to 81 nM)
